Consider seven molecules from PMC9410885, “Structural assembly of the nucleic-acid-binding Thp3–Csn12–Sem1 complex functioning in mRNA splicing” (Nucleic Acids Research, 2022).

First the molecules themselves.
B1: T-rich dsDNA 20 (dsDNA)
DNA 1: TTTTATTTTATTTTTATTTT
DNA 2: AAAATAAAAATAAAATAAAA
B2: Sem1, full length, untagged (natural protein, S. cerevisiae, UniProt O94742 1-89, looked up)
chain: MSTDVAAAQAQSKIDLTKKKNEEINKKSLEEDDEFEDFPIDTWANGETIKSNAVTQTNIWEENWDDVEVDDDFTNELKAELDRYKRENQ
notes: Sem1, S. cerevisiae, full length, residues 1-89; second MCS of pETDuet-1; source: E. coli Rosetta (DE3), co-expressed; in cleared lysate (pull-down) and purified in the ternary complex (Ni-NTA, gel filtration, cation exchange)
B3: Csn12, full length, untagged (natural protein, S. cerevisiae, UniProt P47130 1-423, looked up)
chain: MDVDIGCYFEEKRYDDKLLDFIRYDVKTPKKTKYILQRPTATDEESVRLQRFYQLGVDLKLKYSKRRSLKKQGRIKNATEELLRLANEQLKLFNRIVERETNWIIYPLWVMAKQLIRLANESSELNKDSIEECGRTIHRSFTICLNDRNPRLNENKKIGCYMFANLEFSIYHRLSNKDMIKNLVKVLESRVNARDIPPLNKSLAMEHKSQVVLYNYYLGQYYGCLENDHERGFFHLNEALLQCPMLYVESTGKFVLQGQMEKIMILLVPLALLTKRLYPHWDHPVIAGVITRSKRLSQVYPTLVRSVISGNLSLYEATAASHERFFLSQGLHVVITLLREVVFTRLVQRCWQWGNDRKSIMPLKILLATKQHDSSANEDEEEQLDALECRLASAIASGLLRAYLSHSNRCIVFSKKEPFPHSK
notes: Csn12, S. cerevisiae, full length, residues 1-423; untagged Csn12 from pET-22b (with His8-GST-Thp3) or from the first MCS of pETDuet-1 (with Sem1 and His8-GST-Thp3); 7EWF is the selenomethionine form; source: E. coli Rosetta (DE3), co-expressed; in cleared lysate (pull-down) and purified in the ternary complex (Ni-NTA, gel filtration, cation exchange)

Positions count from the first letter of the chain named.

The target of one data set is T1, Thp3;Csn12;Sem1 (Saccharomyces cerevisiae;Saccharomyces …, UniProt Q12049;P47130;O94742 1-470;1-423;1-89, ||).
T1 sequence 1: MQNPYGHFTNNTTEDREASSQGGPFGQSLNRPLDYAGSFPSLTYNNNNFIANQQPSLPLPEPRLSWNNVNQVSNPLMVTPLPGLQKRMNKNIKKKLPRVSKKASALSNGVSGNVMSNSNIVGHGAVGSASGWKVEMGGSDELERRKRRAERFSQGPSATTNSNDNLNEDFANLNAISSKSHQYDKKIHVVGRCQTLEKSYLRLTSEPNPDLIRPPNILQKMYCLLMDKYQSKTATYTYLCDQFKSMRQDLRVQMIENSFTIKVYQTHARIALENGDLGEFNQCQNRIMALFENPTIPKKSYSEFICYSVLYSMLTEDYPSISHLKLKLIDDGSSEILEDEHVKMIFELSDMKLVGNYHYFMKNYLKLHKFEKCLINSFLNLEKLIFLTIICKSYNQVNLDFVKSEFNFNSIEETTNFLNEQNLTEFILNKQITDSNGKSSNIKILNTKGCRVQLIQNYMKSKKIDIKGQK
T1 sequence 2: B3 chain
T1 sequence 3: B2 chain
The experiment in a line: fluorescence polarization; FP: 20 mM Tris-HCl pH 8.0, 150 mM NaCl, 2 mM MgCl2, 25 C; 50 nM 5'-FAM probe, protein 0-25.6 uM, 30 min. The settings on record: protein: recombinant;recombinant;recombinant, tags: 8xHis-GST N-terminal, removed by TEV;none;none, copies: 1;1;1, label: 5' FAM. A general note: Polarisation of emitted light reports the rotation of a fluorescent probe.

Data set [1] addresses T2, Csn12 (binary complex);Sem1 (Saccharomyces cerevisiae;Saccharomyces …, UniProt P47130;O94742 1-423;1-89, |).
T2 sequence 1: B3 chain
T2 sequence 2: B2 chain
The data set is described as above. The note with it: protein: recombinant;recombinant; tags: 6xHis;none; copies: 1;1; label: 5' FAM.

Data set [2] has as its target B3. The experiment in a line: crystal structure + SEC; single copy of the ternary complex in the asymmetric unit; ratio said to be consistent with the gel filtration result. The settings on record: both partners purified. On the technique in general: In gel filtration, larger molecules generally elute earlier.
The target in data set [3] is T3, Thp3 (186–470), truncated Thp3 (S. cerevisiae, UniProt Q12049 186-470).
T3 construct: Thp3 (Ypr045c), S. cerevisiae, residues 186-470 (HD and WH domains); 8×His-GST tag removed with TEV protease; also called truncated Thp3 (residues 186–470); not shown: His8, N-terminal, cleaved; GST, N-terminal, cleaved
T3 sequence (looked up): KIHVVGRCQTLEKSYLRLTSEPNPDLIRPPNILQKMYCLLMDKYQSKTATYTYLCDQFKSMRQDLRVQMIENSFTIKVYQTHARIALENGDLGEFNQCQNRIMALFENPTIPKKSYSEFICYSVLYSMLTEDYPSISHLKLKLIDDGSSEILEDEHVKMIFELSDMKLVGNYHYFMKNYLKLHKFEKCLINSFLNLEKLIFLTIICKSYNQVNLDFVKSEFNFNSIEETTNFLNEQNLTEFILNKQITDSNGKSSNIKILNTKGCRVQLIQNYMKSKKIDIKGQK
The data set is described as above. The note with it: both partners purified.

Data set [4] addresses T4, Thp3;Csn12 K415E/K416E;Sem1 (Saccharomyces cerevisiae;Saccharomyces …, UniProt Q12049;P47130;O94742 1-470;1-423;1-89, |K415E;K416E|).
T4 sequence 1: T1 sequence 1
T4 sequence 2: B3 chain with K415E, K416E
T4 sequence 3: B2 chain
As to the kind of experiment: fluorescence polarization; FP: 20 mM Tris-HCl pH 8.0, 150 mM NaCl, 2 mM MgCl2, 25 C; 50 nM 5'-FAM probe, protein 0-25.6 uM, 30 min. The note with it: protein: recombinant;recombinant;recombinant; tags: 8xHis-GST N-terminal, removed by TEV;none;none; copies: 1;1;1; label: 5' FAM.

The next data set addresses T5, Thp3;Csn12 R401E;Sem1 (Saccharomyces cerevisiae;Saccharomyces …, UniProt Q12049;P47130;O94742 1-470;1-423;1-89, |R401E|).
T5 sequence 1: T1 sequence 1
T5 sequence 2: B3 chain with R401E
T5 sequence 3: B2 chain
Described as above. The note with it: protein: recombinant;recombinant;recombinant; tags: 8xHis-GST N-terminal, removed by TEV;none;none; copies: 1;1;1; label: 5' FAM.

By Kd is commonly meant the equilibrium constant for the complex coming apart. With AUAUAUAUAUAUAUAUAUAU (ssRNA) [AU-repeat ssRNA 20], in the data set with Thp3;Csn12;Sem1, the Kd stood at 4.5 µM. Take TTTTATTTTATTTTTATTTTATTTT (ssDNA) [T-rich ssDNA 25]: the Kd with Thp3;Csn12;Sem1 came out at 2.9 µM; in data set [1], 33.8 µM. As for AUAUAUAUAUAUAUAUAUAUAUAUA (ssRNA) [AU-repeat ssRNA 25], the Kd with Thp3;Csn12;Sem1 turned out to be 1.6 µM. Take B1: the Kd with Thp3;Csn12;Sem1 (blunt) turned out to be 1.1 µM. The term stoichiometry N denotes the number of molecules, sites or subunits per partner or assembly. In the case of B2, in data set [2], the “stoichiometry N” value was 1. Take B3: in data set [3], the “stoichiometry N” value was 1. For TTTTATTTTATTTTTATTTT (ssDNA) [T-rich ssDNA 20], in the data set with Thp3;Csn12;Sem1, the Kd was determined as 3.7 µM. For the same molecule, the binding result (in data set [4]; with Thp3;Csn12 R401E;Sem1) was “no binding” in each case.
